Data taken from US20080280834A1 (UNIVERSITY OF PITTSBURGH OF THE COMMONWEALTH SYSTEM OF …, published 2008).
No end group written: not given here.

T1: Recombinant Human Fas/TNFRSF6/Fc Chimera (human, UniProt P25445 26-173)
T1 construct: also called FasR; Fas receptor; Fc part of the bought chimera not given
T1 sequence (looked up): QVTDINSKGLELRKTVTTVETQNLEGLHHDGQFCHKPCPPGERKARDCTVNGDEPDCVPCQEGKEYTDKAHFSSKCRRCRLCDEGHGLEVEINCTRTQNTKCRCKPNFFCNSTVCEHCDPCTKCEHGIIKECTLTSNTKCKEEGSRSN

T2: Fas receptor on Jurkat cells (UniProt P25445 26-335, limits assumed)
T2 sequence (looked up): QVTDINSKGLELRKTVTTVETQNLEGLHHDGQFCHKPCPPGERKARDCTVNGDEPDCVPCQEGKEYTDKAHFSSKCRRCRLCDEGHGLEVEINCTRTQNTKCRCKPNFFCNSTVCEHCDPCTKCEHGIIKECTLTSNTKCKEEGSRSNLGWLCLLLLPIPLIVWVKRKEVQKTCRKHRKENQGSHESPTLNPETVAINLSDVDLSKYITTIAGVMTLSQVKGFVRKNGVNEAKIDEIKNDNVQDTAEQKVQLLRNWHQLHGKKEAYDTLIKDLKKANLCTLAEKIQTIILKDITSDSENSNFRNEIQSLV

B1: YLGA (peptide)
peptide: YLGA
modifications: not fully specified
notes: Synthetic peptide; also called original tyrosine peptide
B2: WLGA (peptide)
peptide: WLGA
B3: LLGA (peptide)
peptide: LLGA
B4: FLGA (peptide)
peptide: FLGA
B5: YAGA (peptide)
peptide: YAGA
B6: SLGA (peptide)
peptide: SLGA
B7: YLGG (peptide)
peptide: YLGG
B8: YGGA (peptide)
peptide: YGGA
B9: YTGA (peptide)
peptide: YTGA
B10: YVGA (peptide)
peptide: YVGA
B11: YIGA (peptide)
peptide: YIGA
B12: YFGA (peptide)
peptide: YFGA
B13: YLAA (peptide)
peptide: YLAA
B14: ILGA (peptide)
peptide: ILGA
B15: KLGA (peptide)
peptide: KLGA
B16: GLGA (peptide)
peptide: GLGA
B17: YLGI (peptide)
peptide: YLGI
B18: TLGA (peptide)
peptide: TLGA
B19: YLLA (peptide)
peptide: YLLA
B20: ALGA (peptide)
peptide: ALGA
B21: DLGA (peptide)
peptide: DLGA
B22: ELGA (peptide)
peptide: ELGA
B23: YLGL (peptide)
peptide: YLGL
B24: YLIA (peptide)
peptide: YLIA
B25: YLGT (peptide)
peptide: YLGT
B26: YLG ATN YIY (peptide)
peptide: YLGATNYIY
B27: HHI YLG A (peptide)
peptide: HHIYLGA
B28: HHI YLG ATN YI (peptide)
peptide: HHIYLGATNYI
B29: I YLG ATN YIY (peptide)
peptide: IYLGATNYIY
B30: HHI YLG ATN Y (peptide)
peptide: HHIYLGATNY
B31: HI YLG ATN YIY (peptide)
peptide: HIYLGATNYIY
B32: HHI YLG ATN YIY (peptide)
peptide: HHIYLGATNYIY
B33: HHI YLG ATN (peptide)
peptide: HHIYLGATN
B34: HHI YLG AT (peptide)
peptide: HHIYLGAT

Biological target: T1, Recombinant Human Fas/TNFRSF6/Fc Chimera
Assay: ELISA, peptide coated, Fas/Fc added
Experimental: (§1) ELISA. Peptides were dissolved in a coating buffer solution (0.05M Sodium Carbonate, 0.02% Sodium Azide, pH=9.6) at the appropriate concentrations to a final concentration of 10 μM. Dilutions were made accordingly to reach desired experimental concentrations. 100 μl aliquots of the peptide solution was added to each well and incubated for 2 hours. All incubations were carried out with shaking at T=37° C. Wells were washed by pipetting solution out of each well, adding 200 μL of washing solution (PBS-Tween; 0.5%), shaking for 15 minutes and emptying each well. Three wash cycles were carried out prior to addition of 200 μL of blocking solution (1% BSA in PBS buffer) to each well followed by incubation for 2 hours. Wells were then washed (as per above procedure) three times. Protein solutions of the appropriate concentrations (Vₛₒₗᵤₜᵢₒₙ 50 μL) were then added and incubated for 2 hours. After washing three times (as per above protocol) Fas specific antibody solution (˜1:20,000) was added to each well in 100 μL aliquots and incubated for 1 hour. After washing three times (as per above protocol) IgM-HRP solution (˜1:20,000) was added to each well in 100 μL aliquots and incubated (with shaking) for 1 hour at T=37° C. Wells were washed three times prior to the addition of ready-to-use TMD, followed by incubation for 30 minutes. 2M H₂SO₄ (3 drops) was added to stop colorimetric reaction and the absorption was taken at 450 nm on a Perkin-Elmer, Victor3 Model automated plate reader. Data was analyzed using standard regression fits in Excel.
(§2) Effect of Amino Acid Substitution on Binding Affinities. […] In the first series of peptides, alterations were made only to the tyrosine residue while retaining the final three amino acids homologous in the parent sequence (LGA).

Ka | Kd | Binder
2e+08 M⁻¹ | 5 nM | B1
8e+07 M⁻¹ | 13 nM | B2
1e+07 M⁻¹ | 88 nM | B3
1e+08 M⁻¹ | 10 nM | B4
3e+08 M⁻¹ | 4 nM | B5
2e+08 M⁻¹ | 5 nM | B6
4e+07 M⁻¹ | 28 nM | B7

Biological target: T3, TNFR1
T3 construct: The same entry is used for the Kd and for the EC50 rows
T3 sequence (P19438 whole entry): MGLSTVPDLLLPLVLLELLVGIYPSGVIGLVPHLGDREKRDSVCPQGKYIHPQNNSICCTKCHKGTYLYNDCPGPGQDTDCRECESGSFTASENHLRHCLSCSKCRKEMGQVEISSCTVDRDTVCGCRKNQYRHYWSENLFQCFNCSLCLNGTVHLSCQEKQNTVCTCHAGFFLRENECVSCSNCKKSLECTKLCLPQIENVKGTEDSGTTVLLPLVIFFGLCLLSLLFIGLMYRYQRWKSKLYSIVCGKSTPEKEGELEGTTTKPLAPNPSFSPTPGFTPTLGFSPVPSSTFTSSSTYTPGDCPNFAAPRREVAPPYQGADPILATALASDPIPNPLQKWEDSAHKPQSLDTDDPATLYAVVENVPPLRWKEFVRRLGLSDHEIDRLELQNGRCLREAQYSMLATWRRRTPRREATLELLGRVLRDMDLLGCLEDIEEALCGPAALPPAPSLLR
Assay: method for TNFR not described

Kd | Binder
6 nM | B1
4 nM | B7

Biological target: T1, Recombinant Human Fas/TNFRSF6/Fc Chimera
Assay: ELISA, peptide coated, Fas/Fc added
Remark: another data set of the same source
Experimental: as §1, §2

Ka | Binder | binding result
2e+08 M⁻¹ | B1 | –
1e+07 M⁻¹ | B8 | –
– | B9 | no binding (tested: concentration range of 1 nM to 1 µM)
3e+08 M⁻¹ | B5 | –
2e+08 M⁻¹ | B10 | –
2e+08 M⁻¹ | B11 | –
– | B12 | no binding (tested: concentration range of 1 nM to 1 µM)

Biological target: T1, Recombinant Human Fas/TNFRSF6/Fc Chimera
Assay: ELISA, peptide coated, Fas/Fc added
Remark: another data set of the same source
Experimental: as §1, §2

Ka | fold decrease in Ka | times less affinity than YLGA | fold drop off against YLGA | Binder | binding result
2e+08 M⁻¹ | – | – | – | B1 | –
– | 20 fold | – | – | B13 | –
– | 20 fold | – | – | B8 | –
9e+06 M⁻¹ | – | – | – | B14 | –
8e+07 M⁻¹ | – | – | – | B2 | –
8e+06 M⁻¹ | – | – | – | B15 | –
1e+07 M⁻¹ | – | – | – | B3 | –
– | – | – | – | B16 | no binding (tested: concentration range of 1 nM to 1 µM)
1e+08 M⁻¹ | – | – | – | B4 | –
– | – | ~10 times | – | B17 | –
2e+08 M⁻¹ | – | – | – | B6 | –
2e+08 M⁻¹ | – | – | – | B18 | –
– | 20 fold | – | – | B19 | –
– | – | ~10 times | – | B7 | –
– | – | – | – | B20 | no binding (tested: concentration range of 1 nM to 1 µM)
5e+07 M⁻¹ | – | – | 4 fold | B21 | –
5e+07 M⁻¹ | – | – | 4 fold | B22 | –
– | – | ~10 times | – | B23 | –

Biological target: T3, TNFR1
Assay: cell-based or functional assay

EC50 (TNFR) | Binder
11 nM | B1
8 nM | B7

Biological target: T2, Fas receptor on Jurkat cells
Assay: cell-based or functional assay

EC50 (FasR) | Binder
6 nM | B1
52 nM | B7

Biological target: T1, Recombinant Human Fas/TNFRSF6/Fc Chimera
Assay: ELISA, peptide coated, Fas/Fc added
Remark: another data set of the same source
Experimental: as §1, with “After washing three times (as per above protocol) IgM-HRP solution (˜1:20,000) was added to each well in 100 μL aliquots and incubated (with shaking) for 1 hour at T=37° C.” left out

Kd | Binder
5 nM | B1
28 nM | B7

Biological target: T1, Recombinant Human Fas/TNFRSF6/Fc Chimera
Assay: ELISA, peptide coated, Fas/Fc added
Remark: another data set of the same source
Experimental: as §1, §2

Ka | Binder | binding result
2e+08 M⁻¹ | B1 | –
1e+06 M⁻¹ | B13 | –
1e+06 M⁻¹ | B19 | –
– | B24 | no binding (tested: concentration range of 1 nM to 1 µM)

Biological target: T1, Recombinant Human Fas/TNFRSF6/Fc Chimera
Assay: ELISA, peptide coated, Fas/Fc added
Remark: another data set of the same source
Experimental: as §1, §2

Ka | Binder | binding result
2e+08 M⁻¹ | B1 | –
3e+07 M⁻¹ | B17 | –
4e+07 M⁻¹ | B7 | –
– | B25 | no binding (tested: concentration range of 1 nM to 1 µM)
3e+07 M⁻¹ | B23 | –

Biological target: T1, Recombinant Human Fas/TNFRSF6/Fc Chimera
Assay: ELISA, peptide coated, Fas/Fc added
Remark: another data set of the same source
Experimental: as §1
Effect of Flanking Residues on Binding Affinities. […] While this work has shown that tetrapeptides based from the original protein sequence can inhibit the FasL/FasR cell death pathway at low nM concentrations, the ability to improve upon this was examined by looking at the extended sequence on both the N-terminal and C-terminal side of the YLGA (SEQ ID NO:1) motif. Peptides up to 12 amino acids in length were synthesized based on the α-Met sequence and their Kₐ values measured for the Fas receptor, Table 7.

Ka | Binder
3e+08 M⁻¹ | B26
3e+08 M⁻¹ | B27
3e+08 M⁻¹ | B28
3e+08 M⁻¹ | B29
3e+08 M⁻¹ | B30
3e+08 M⁻¹ | B31
3e+08 M⁻¹ | B32
3e+08 M⁻¹ | B33
3e+08 M⁻¹ | B34

Biological target: T2, Fas receptor on Jurkat cells
Assay: cell-based or functional assay
Remark: another data set of the same source

Binder | EC50 (nM), cell viability of Jurkat cells exposed to recombinant FasL
B1 | 6 nM
B3 | 93 nM
B5 | 6 nM
B6 | 6 nM
B7 | 52 nM
